In patent publication US20150232510A1:

Target: Recombinant Human DPPIV/CD26 (R&D Systems, Inc.) (human) (UniProt P27487)
Assay: cell-based or functional assay

Sequence of UniProt P27487 (P27487 29-766 limits assumed): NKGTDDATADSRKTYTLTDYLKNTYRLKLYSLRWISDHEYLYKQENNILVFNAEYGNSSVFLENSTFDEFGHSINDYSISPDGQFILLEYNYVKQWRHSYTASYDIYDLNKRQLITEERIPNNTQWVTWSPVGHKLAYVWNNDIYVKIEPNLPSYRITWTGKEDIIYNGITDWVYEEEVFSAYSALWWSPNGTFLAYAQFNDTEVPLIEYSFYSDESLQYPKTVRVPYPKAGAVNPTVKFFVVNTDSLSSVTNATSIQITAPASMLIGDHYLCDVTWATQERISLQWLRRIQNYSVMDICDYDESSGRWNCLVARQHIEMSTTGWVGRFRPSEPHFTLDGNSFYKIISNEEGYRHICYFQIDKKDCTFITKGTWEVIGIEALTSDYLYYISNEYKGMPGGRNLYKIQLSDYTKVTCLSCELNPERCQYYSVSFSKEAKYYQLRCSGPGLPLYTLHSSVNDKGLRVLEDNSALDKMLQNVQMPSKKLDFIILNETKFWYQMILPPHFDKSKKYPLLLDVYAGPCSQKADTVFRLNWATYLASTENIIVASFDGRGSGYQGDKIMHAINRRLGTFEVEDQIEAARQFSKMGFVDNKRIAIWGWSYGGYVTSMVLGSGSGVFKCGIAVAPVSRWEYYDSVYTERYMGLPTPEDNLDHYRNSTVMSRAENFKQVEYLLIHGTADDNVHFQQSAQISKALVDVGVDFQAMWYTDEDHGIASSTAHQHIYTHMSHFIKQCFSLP

| DPP-4 inhibiting activity IC50(µg/ml) [µg/mL] | concentration for 50% inhibition of the enzymatic activity (dipeptidyl peptidase-IV inhibiting ability of HPLC Fraction 2) [µg/mL] | Substance |
| --- | --- | --- |
| 1340 |  | Ile-Pro-Pro (peptide) |
| 486 |  | LY (peptide) |
| 1.9 | 2 | Val-Pro-Ala (peptide) |
| 5.7 |  | Val-Pro-Asn (peptide) |
| 2.6 |  | Val-Pro-Gln (peptide) |
| 3.4 |  | Val-Pro-Gly (peptide) |
| 10.4 |  | Val-Pro-Lys (peptide) |
| > 2000 |  | Val-Pro-Pro (peptide) |
| 5.17 |  | Val-Pro-Ser (peptide) |
| 7.15 |  | Val-Pro-Tyr (peptide) |
| 1 |  | Val-Pro-Val (peptide) |

Target: Angiotensin Converting Enzyme, from rabbit lung (SIGMA) (rabbit) (UniProt P12822)
Assay: cell-based or functional assay

Sequence of UniProt P12822 (P12822 34-1310 limits assumed): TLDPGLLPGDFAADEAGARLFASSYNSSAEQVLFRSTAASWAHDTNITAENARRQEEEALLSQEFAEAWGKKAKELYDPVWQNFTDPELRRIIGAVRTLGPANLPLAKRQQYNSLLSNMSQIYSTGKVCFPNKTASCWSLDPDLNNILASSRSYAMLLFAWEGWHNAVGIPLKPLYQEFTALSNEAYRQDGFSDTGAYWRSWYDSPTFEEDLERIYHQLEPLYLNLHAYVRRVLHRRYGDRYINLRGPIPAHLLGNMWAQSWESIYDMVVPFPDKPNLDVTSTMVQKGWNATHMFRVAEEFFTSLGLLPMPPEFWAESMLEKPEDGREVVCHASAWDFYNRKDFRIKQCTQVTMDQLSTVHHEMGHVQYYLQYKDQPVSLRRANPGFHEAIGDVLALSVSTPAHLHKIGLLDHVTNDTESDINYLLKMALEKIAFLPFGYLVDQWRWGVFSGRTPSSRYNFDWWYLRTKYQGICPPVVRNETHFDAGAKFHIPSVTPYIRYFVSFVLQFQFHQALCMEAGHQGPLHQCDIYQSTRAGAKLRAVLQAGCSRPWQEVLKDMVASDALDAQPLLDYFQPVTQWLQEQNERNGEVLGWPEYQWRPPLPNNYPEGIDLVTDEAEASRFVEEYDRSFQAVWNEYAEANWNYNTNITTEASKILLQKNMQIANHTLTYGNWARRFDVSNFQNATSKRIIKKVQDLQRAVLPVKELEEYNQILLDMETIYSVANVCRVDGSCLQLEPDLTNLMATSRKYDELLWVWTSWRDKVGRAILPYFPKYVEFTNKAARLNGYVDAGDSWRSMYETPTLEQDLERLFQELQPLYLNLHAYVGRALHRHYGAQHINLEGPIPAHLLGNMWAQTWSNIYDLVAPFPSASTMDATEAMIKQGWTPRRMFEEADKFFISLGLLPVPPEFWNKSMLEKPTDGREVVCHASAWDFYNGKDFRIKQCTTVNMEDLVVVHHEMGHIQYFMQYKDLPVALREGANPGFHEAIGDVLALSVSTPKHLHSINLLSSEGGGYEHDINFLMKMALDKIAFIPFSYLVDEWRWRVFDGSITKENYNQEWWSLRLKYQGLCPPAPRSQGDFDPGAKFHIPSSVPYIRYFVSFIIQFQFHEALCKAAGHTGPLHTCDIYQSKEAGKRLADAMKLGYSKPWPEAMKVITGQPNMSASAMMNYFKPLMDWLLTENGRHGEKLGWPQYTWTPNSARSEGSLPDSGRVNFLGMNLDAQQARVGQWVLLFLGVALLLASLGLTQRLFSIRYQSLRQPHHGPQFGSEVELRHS

| ACE inhibiting activity, 50% inhibition concentration [µg/mL] | Substance |
| --- | --- |
| 24.8 | Val-Pro-Ala (peptide) |
| 132 | Val-Pro-Lys (peptide) |
